Results: the supplement of paper PMC9233669
Fewer inactive variants are shown than the library holds.

Tests used:
biotinyl-Val-oxazolone = experiment: self-aminoacylation, catalytic enhancement (BVO) (fold over background); higher = more active; k-Seq, kA / k0A0; sequences stand for … in GGGAAUGGAUCCACAUCUACGAAUUC…UUCACUGCAGACUUGACGAAGCUG
How it was run: (§1)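 Mutagenized RNA pools with a 21-nt variable region (0.43 μM) were reacted with each biotinyl-aminoacyl-oxazolone at 2–1250 μM for 90 minutes at room temperature, in 50 μL HEPES/NaCl/KCl/MgCl2/CaCl2 buffer containing 5% acetonitrile at pH 6.9–7.0. RNA captured on streptavidin was quantified by triplicate qPCR and by Illumina sequencing. The fraction reacted for each sequence was fit to a pseudo-first-order model with bootstrapping, and catalytic enhancement is the median kA divided by the uncatalyzed rate, taken as the low-activity peak of a bimodal Gaussian fit.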

biotinyl-Trp-oxazolone = experiment: self-aminoacylation, catalytic enhancement (BWO) (fold over background); higher = more active; k-Seq, kA / k0A0; sequences stand for … in GGGAAUGGAUCCACAUCUACGAAUUC…UUCACUGCAGACUUGACGAAGCUG
How it was run: as §1

biotinyl-Phe-oxazolone = experiment: self-aminoacylation, catalytic enhancement (BFO) (fold over background); higher = more active; k-Seq, kA / k0A0; sequences stand for … in GGGAAUGGAUCCACAUCUACGAAUUC…UUCACUGCAGACUUGACGAAGCUG
How it was run: as §1

biotinyl-Leu-oxazolone = experiment: self-aminoacylation, catalytic enhancement (BLO) (fold over background); higher = more active; k-Seq, kA / k0A0; sequences stand for … in GGGAAUGGAUCCACAUCUACGAAUUC…UUCACUGCAGACUUGACGAAGCUG
How it was run: as §1

biotinyl-Met-oxazolone = experiment: self-aminoacylation, catalytic enhancement (BMO) (fold over background); higher = more active; k-Seq, kA / k0A0; sequences stand for … in GGGAAUGGAUCCACAUCUACGAAUUC…UUCACUGCAGACUUGACGAAGCUG
How it was run: as §1

biotinyl-Ile-oxazolone = experiment: self-aminoacylation, catalytic enhancement (BIO) (fold over background); higher = more active; k-Seq, kA / k0A0; sequences stand for … in GGGAAUGGAUCCACAUCUACGAAUUC…UUCACUGCAGACUUGACGAAGCUG
How it was run: as §1

Sequence | self-aminoacylation (biotinyl-Val-oxazolone) | self-aminoacylation (biotinyl-Trp-oxazolone) | self-aminoacylation (biotinyl-Phe-oxazolone) | self-aminoacylation (biotinyl-Leu-oxazolone) | self-aminoacylation (biotinyl-Met-oxazolone) | self-aminoacylation (biotinyl-Ile-oxazolone)
AUUCACUUAGGUCAUCGCGUG [Fam2.2 aminoacylation ribozyme variant] | 6.11 | 11.1 | 94.5 | 15 | 11.7 | 6.03
AUUCACUUAGGUCAUCGGAUG [Fam2.2 aminoacylation ribozyme variant] | 0.714 | 0.528 | 0.46 | 0.579 | 0.766 | 0.701
AUUCACUUAGGUCAUCGGCUG [Fam2.2 aminoacylation ribozyme variant] | 1.65 | 1.45 | 4.69 | 1.17 | 1.47 | 1.46
AUUCACUUAGGUCAUCGGGGG [Fam2.2 aminoacylation ribozyme variant] | 1.95 | 2.16 | 2.12 | 2.74 | 2.13 | 2.04
AUUCACUUAGGUCAUCGUGUG [Fam2.2 aminoacylation ribozyme variant] | 0.777 | 0.747 | 0.821 | 0.869 | 0.802 | 0.779
AUUCACUUAGGUGAUCGGGUG [Fam2.2 aminoacylation ribozyme variant] | 2.5 | 3.03 | 13.3 | 3.43 | 2.59 | 2.46
AUUCACUUAUGUCAUCGGGUG [Fam2.2 aminoacylation ribozyme variant] | 3.08 | 5.18 | 42.6 | 7.31 | 5.5 | 3.42
AUUCACUUGGGUCAUCGGGUG [Fam2.2 aminoacylation ribozyme variant] | 4.44 | 6.5 | 43.9 | 7.5 | 6.84 | 4.61
AUUCAGCUAGAUCAUCGGGUG [Fam2.2 aminoacylation ribozyme variant] | 2.85 | 3.9 | 26.3 | 4.61 | 4.04 | 2.71
AUUCAGCUAGGACAUCGGGUG [Fam2.2 aminoacylation ribozyme variant] | 3.53 | 4.43 | 42.1 | 5.98 | 4.65 | 3.53
AUUCAGCUAGGUCAACGGGUG [Fam2.2 aminoacylation ribozyme variant] | 1.83 | 2.6 | 5.84 | 2.43 | 1.92 | 1.81
AUUCAGCUAGGUCACCGGGUG [Fam2.2 aminoacylation ribozyme variant] | 4.32 | 7.07 | 51.6 | 6.32 | 7.17 | 4.69
AUUCAGCUAGGUCAUCCGGUG [Fam2.2 aminoacylation ribozyme variant] | 5.44 | 8.08 | 44.2 | 8.88 | 6.6 | 5.29
AUUCAGCUAGGUCAUCGGGAG [Fam2.2 aminoacylation ribozyme variant] | 1.68 | 1.32 | 4.09 | 1.69 | 1.61 | 1.72
AUUCAGCUCGGUCAUCGGGUG [Fam2.2 aminoacylation ribozyme variant] | 5.43 | 7.34 | 78.7 | 9.01 | 9.53 | 4.88
AUUCAGCUGGGUCAUCGGGUG [Fam2.2 aminoacylation ribozyme variant] | 4.76 | 4.72 | 37.9 | 5.07 | 5.66 | 3.79
AUUCAUCAAGGUCAUCGGGUG [Fam2.2 aminoacylation ribozyme variant] | 5.94 | 10.2 | 74.7 | 10.9 | 9.84 | 5.94
AUUCAUCUAGAUCAUCGGGUG [Fam2.2 aminoacylation ribozyme variant] | 2.14 | 3.24 | 14.1 | 4.1 | 2.68 | 2.1
AUUCAUCUAGGCCAUCGGGUG [Fam2.2 aminoacylation ribozyme variant] | 2.84 | 3 | 19 | 5.22 | 3.38 | 2.39
AUUCAUCUAGGGCAUCGGGUG [Fam2.2 aminoacylation ribozyme variant] | 2.97 | 2.7 | 21.4 | 4.32 | 3.45 | 2.81
AUUCAUCUAGGUCAUAGGGUG [Fam2.2 aminoacylation ribozyme variant] | 1.87 | 2.83 | 10.1 | 3.39 | 2.63 | 2
AUUCAUCUAGGUCAUCGGGGG [Fam2.2 aminoacylation ribozyme variant] | 1.9 | 2.14 | 5.32 | 2.31 | 2.13 | 1.82
AUUCAUCUAUGUCAUCGGGUG [Fam2.2 aminoacylation ribozyme variant] | 3.8 | 6.27 | 50.7 | 8.74 | 6.63 | 4.09
AUUCAUUUAGGUCAUCGGGUG [Fam2.2 aminoacylation ribozyme variant] | 3.33 | 5.6 | 45.6 | 6.72 | 5.48 | 3.25
AUUCCCCAGGUCAUCGAGUGA [Fam2.1 aminoacylation ribozyme variant] | 3.75 | 6.65 | 21.1 | 4.83 | 4.86 | 3.12
AUUCCCCGGGUCAUCGAGUGA [Fam2.1 aminoacylation ribozyme variant] | 2.92 | 6.46 | 30 | 4.99 | 4.59 | 3.32
